Results taken from publication doi:10.1101/2025.08.25.672233.

Biological target: soluble mouse MXRA8-Fc (UniProt Q9DBV4)
Conditions: read off a plot; for other: 1/IC50: mean of three biological replicates, parent: est. 2.6; for screen value: parent: est. 0

Chain of UniProt Q9DBV4 (Q9DBV4 22-336): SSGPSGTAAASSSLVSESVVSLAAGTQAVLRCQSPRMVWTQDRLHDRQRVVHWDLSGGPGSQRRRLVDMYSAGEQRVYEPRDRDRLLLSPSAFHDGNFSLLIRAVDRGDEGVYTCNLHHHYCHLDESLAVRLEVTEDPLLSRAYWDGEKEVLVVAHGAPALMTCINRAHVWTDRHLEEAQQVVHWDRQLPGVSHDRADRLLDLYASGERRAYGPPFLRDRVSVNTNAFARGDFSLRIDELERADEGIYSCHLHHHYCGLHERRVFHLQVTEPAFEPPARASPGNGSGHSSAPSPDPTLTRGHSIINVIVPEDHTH

Substance | other: 1/IC50 | screen value
CHIKV envelope proteins (E3-E2-6K-E1) from the 181/25 strain, unmutated, on pseudovirus E1:D158R | 15 | 1.9
CHIKV envelope proteins (E3-E2-6K-E1) from the 181/25 strain, unmutated, on pseudovirus E1:K132N | 0.3 | -2.6
CHIKV envelope proteins (E3-E2-6K-E1) from the 181/25 strain, unmutated, on pseudovirus E1:K157C | 0.71 | -1.7
CHIKV envelope proteins (E3-E2-6K-E1) from the 181/25 strain, unmutated, on pseudovirus E2:A157S | 9.4 | 0.85
CHIKV envelope proteins (E3-E2-6K-E1) from the 181/25 strain, unmutated, on pseudovirus E2:E24Y | 1.1 | 1.9
CHIKV envelope proteins (E3-E2-6K-E1) from the 181/25 strain, unmutated, on pseudovirus E2:H18A | 3.2 | 1.6
CHIKV envelope proteins (E3-E2-6K-E1) from the 181/25 strain, unmutated, on pseudovirus E2:I121E | 0.05 | -3.1
CHIKV envelope proteins (E3-E2-6K-E1) from the 181/25 strain, unmutated, on pseudovirus E2:K120D | 0.17 | -2.5
CHIKV envelope proteins (E3-E2-6K-E1) from the 181/25 strain, unmutated, on pseudovirus E2:K189Y | 140 | 2.4
CHIKV envelope proteins (E3-E2-6K-E1) from the 181/25 strain, unmutated, on pseudovirus E2:Q158T | 2.1 | -0.15
CHIKV envelope proteins (E3-E2-6K-E1) from the 181/25 strain, unmutated, on pseudovirus E2:R119K | 0.05 | -3.5
CHIKV envelope proteins (E3-E2-6K-E1) from the 181/25 strain, unmutated, on pseudovirus E2:R178S | 1 | -2.3
